# Source: paper PMC5528842, “The mechanism of monomer transfer between two structurally distinct PrP oligomers” (PLoS ONE, 2017)
# Several values for one entry are separate records, joined by “and”; a condition that tells them apart may be missing. Equal entries are not always repeated.
# B1: Full-length Ovine PrP 23-234 (Ala-136, Arg-154, Gln-171 variant) (natural protein)
# chain: not shown
# notes: also called OvPrP; ARQ PrP
# Legend:
# [1] = target: the molecule itself; assay: […], sodium citrate 20 mM pH 4.0, […]
# [2] = target: the molecule itself; assay: static light scattering + SEC
protein,measurement,setting,value
B1,stoichiometry N,[1],25 to 70 mer
same,koff,[2],0.00403 s⁻¹ and 0.0038 s⁻¹ and 0.01 s⁻¹
